According to patent US20230287088A1 (BIONTECH, published 2023):
Read-outs that look alike come from different tables or passages of the source.

Key:
[1] = biological target: T1, Human-Fc-tagged SARS-CoV2 S1 recombinant protein (Sino Biologicals) (SARS-CoV-2, UniProt P0DTC2 16-685); experiment: ELISA on coated S1-hFc, 3 µg/ml; rabbit antibody in B-cell supernatant
T1 construct: domain: S1; Bought reagent

[2] = biological target: T2, Mouse-Fc-tagged SARS-CoV2 S1-RBD (Sino Biologicals) recombinant protein (SARS-CoV-2, UniProt P0DTC2 319-541); experiment: competition ELISA: blocks S1-RBD-mFc binding to coated ACE-2 ECD
T2 construct: domain: S1-RBD

[3] = biological target: T2, Mouse-Fc-tagged SARS-CoV2 S1-RBD (Sino …); experiment: ELISA on coated S1-RBD-mFc
[4] = biological target: T3, His-tagged SARS-CoV S1-RBD (Sino Biologicals) (SARS-CoV, UniProt P59594 306-527); experiment: ELISA on coated His-tagged SARS-CoV S1-RBD [D00020 Figure 8A continued]
T3 construct: domain: S1-RBD; Bought reagent

[5] = biological target: T1, Human-Fc-tagged SARS-CoV2 S1 …
[6] = biological target: T2, Mouse-Fc-tagged SARS-CoV2 S1-RBD (Sino …); experiment: ELISA on coated S1-RBD-mFc; remark: listed apart in the source
[7] = biological target: T2, Mouse-Fc-tagged SARS-CoV2 S1-RBD (Sino …); experiment: competition ELISA: blocks S1-RBD-mFc binding to coated ACE-2 ECD; remark: listed apart in the source

| Binder | EC50 [1] [µg/mL] | IC50 [2] [µg/mL] | EC50 [3] [µg/mL] | binding result [4] | IC50 [5] [µg/mL] | EC50 [6] [µg/mL] | IC50 [7] [µg/mL] | IC90 [7] [µg/mL] |
| --- | --- | --- | --- | --- | --- | --- | --- | --- |
| P043.A.00036.C07 (antibody, V domains shown, also called 448; protein sample ID 448) VH: QSLEESGGDLVKPGASLTLTCTASGFSFSSSYWICWVRQAPGKGLEWIGCIYTGSGSTWYASWAKGRFTISKTSSTTVTLQMTSLTAADTATYFCARGYGSYMYDFWGPGTLVTVSS VL: DVVMTQTPASVEAAVGGTVTIKCQASQSISTALAWYQQKPGQPPKLLIYSASTLESGVPSRFKGSGSGTEFTLAISDLESADAATYYCQGADGSSSSFGGGTEVVVK | 0.0387 | 0.0434 | 0.007 | no binding (tested: 1000 ng/ml) | 0.0141 | – | – | – |
| P043.A.00032.C04 (antibody, V domains shown, also called 452; protein sample ID 452) VH: QSLEESGGRLVTPGTPLTLTCTASGFSLSSYWMSWVRQAPGKGLEWIGIIYVSGSTYYASWAKGRFTISKTSTTVDLKMTSLTTEDTATYFCARVDYSTGWPLFNIWGPGTLVTVSL VL: AQVLTQTASPVSAAVGGTVTINCQSSQSVYDNNWLGWYQQKPGQPPKLLIYGASILASGVPSRFKGSGSGTQFTLTISDLESDDAATYYCQGGCSGNTFVFGGGTEVVVK | 0.0265 | 0.115 | 0.007 | no binding (tested: 1000 ng/ml) | 0.0147 | – | – | – |
| 460 (bispecific antibody, also called LC of P043.A.00020.D06 with a C-terminal fusion of a scFv of anti-S1 antibody; HC of P043.A.00020.D06 as IgG1-LALA-LS) heavy chain: QSVEESGGRLVTPGTPLTLTCTVSGFSLSSYAMNWVRQAPGKGLEWIGIISSSGSTYYASWAKGRFTISKTSTTVDLKITSPTTEDTATYFCARVGAGYAGYGYDNYYGMDPWGPGTLVTVSSASTKGPSVFPLAPSSKSTSGGTAALGCLVKDYFPEPVTVSWNSGALTSGVHTFPAVLQSSGLYSLSSVVTVPSSSLGTQTYICNVNHKPSNTKVDKRVEPKSCDKTHTCPPCPAPEAAGGPSVFLFPPKPKDTLMISRTPEVTCVVVDVSHEDPEVKFNWYVDGVEVHNAKTKPREEQYNSTYRVVSVLTVLHQDWLNGKEYKCKVSNKALPAPIEKTISKAKGQPREPQVYTLPPSREEMTKNQVSLTCLVKGFYPSDIAVEWESNGQPENNYKTTPPVLDSDGSFFLYSKLTVDKSRWQQGNVFSCSVLHEALHSHYTQKSLSLSPGK light chain fused to scFv: AIQMTQSPSSLAASVGDTVTITCKASEDIGYGLNWYQQKLGIAPKLLIYGANTLESGVPSRFSGSGSETDYTLTISSVQAEDAGIYYCQQGYSTPLTFGAGTKVEIKRTVAAPSVFIFPPSDEQLKSGTASVVCLLNNFYPREAKVQWKVDNALQSGNSQESVTEQDSKDSTYSLSSTLTLSKADYEKHKVYACEVTHQGLSSPVTKSFNRGECDVPGGSGGGGSGGGGSGGGGSQMQLVQSGTEVKKPGESLKISCKGSGYGFITYWIGWVRQMPGKCLEWMGIIYPGDSETRYSPSFQGQVTISADKSINTAYLQWSSLKASDTAIYYCAGGSGISTPMDVWGQGTTVTVGGGGSGGGGSGGGGSGGGGSDIQLTQSPDSLAVSLGERATINCKSSQSVLYSSINKNYLAWYQQKPGQPPKLLIYWASTRESGVPDRFSGSGSGTDFTLTISSLQAEDVAVYYCQQYYSTPYTFGCGTKVEIK | – | – | – | – | – | 0.0153 | 0.0765 | 5.69 |
| 455 (bispecific antibody, also called LC of P043.A.00017.E07 with a C-terminal fusion of a scFv of anti-S1 antibody; HC of P043.A.00017.E07 as IgG1-LALA-LS) heavy chain: QSVEESGGRLVTPGTPLTLTCTVSGFSLSSYAMSWVRQAPGKGLEWIGIISSSGSTYYASWAKGRFTISKTSTTVDLKITSPTTEDTATYFCARAMYPGYSTGVYNIWGPGTLVTVSLASTKGPSVFPLAPSSKSTSGGTAALGCLVKDYFPEPVTVSWNSGALTSGVHTFPAVLQSSGLYSLSSVVTVPSSSLGTQTYICNVNHKPSNTKVDKRVEPKSCDKTHTCPPCPAPEAAGGPSVFLFPPKPKDTLMISRTPEVTCVVVDVSHEDPEVKFNWYVDGVEVHNAKTKPREEQYNSTYRVVSVLTVLHQDWLNGKEYKCKVSNKALPAPIEKTISKAKGQPREPQVYTLPPSREEMTKNQVSLTCLVKGFYPSDIAVEWESNGQPENNYKTTPPVLDSDGSFFLYSKLTVDKSRWQQGNVFSCSVLHEALHSHYTQKSLSLSPGK light chain fused to scFv: AIQMTQSPSSLAASVGDTVTITCKASEDIGYELNWYQQKLGIAPKLLIYGANTLESGVPSRFSGSGSETDYTLTISSVQAEDAGIYYCQQGYNTPNTFGAGTKVEIKRTVAAPSVFIFPPSDEQLKSGTASVVCLLNNFYPREAKVQWKVDNALQSGNSQESVTEQDSKDSTYSLSSTLTLSKADYEKHKVYACEVTHQGLSSPVTKSFNRGECDVPGGSGGGGSGGGGSGGGGSQMQLVQSGTEVKKPGESLKISCKGSGYGFITYWIGWVRQMPGKCLEWMGIIYPGDSETRYSPSFQGQVTISADKSINTAYLQWSSLKASDTAIYYCAGGSGISTPMDVWGQGTTVTVGGGGSGGGGSGGGGSGGGGSDIQLTQSPDSLAVSLGERATINCKSSQSVLYSSINKNYLAWYQQKPGQPPKLLIYWASTRESGVPDRFSGSGSGTDFTLTISSLQAEDVAVYYCQQYYSTPYTFGCGTKVEIK | – | – | – | – | – | 0.0116 | 0.0481 | 0.868 |
| 454 (bispecific antibody, also called LC of P043.A.00023.A08 with a C-terminal fusion of a scFv of anti-S1 antibody; HC of P043.A.00023.A08 as IgG1-LALA-LS) heavy chain: QSVEESGGRLVTPGTPLTLTCTVSGFSLSKYAMSWVRQAPGKGLEWIGIISSGGSTYYASWAKGRFTISKTSSTTVDLKITSPTTEDTATYFCARAGYPGYSPHYFNIWGPGTLVTVSLASTKGPSVFPLAPSSKSTSGGTAALGCLVKDYFPEPVTVSWNSGALTSGVHTFPAVLQSSGLYSLSSVVTVPSSSLGTQTYICNVNHKPSNTKVDKRVEPKSCDKTHTCPPCPAPEAAGGPSVFLFPPKPKDTLMISRTPEVTCVVVDVSHEDPEVKFNWYVDGVEVHNAKTKPREEQYNSTYRVVSVLTVLHQDWLNGKEYKCKVSNKALPAPIEKTISKAKGQPREPQVYTLPPSREEMTKNQVSLTCLVKGFYPSDIAVEWESNGQPENNYKTTPPVLDSDGSFFLYSKLTVDKSRWQQGNVFSCSVLHEALHSHYTQKSLSLSPGK light chain fused to scFv: AIQMTQSPSSLAASVGDTVTITCKASEDIGYELNWYQQKLGIAPKLLIYGANTLESGVPSRFTGSGSETDYTLTISSVQAEDAGIYYCQQGYSTPPTFGAGTKVEIKRTVAAPSVFIFPPSDEQLKSGTASVVCLLNNFYPREAKVQWKVDNALQSGNSQESVTEQDSKDSTYSLSSTLTLSKADYEKHKVYACEVTHQGLSSPVTKSFNRGECDVPGGSGGGGSGGGGSGGGGSQMQLVQSGTEVKKPGESLKISCKGSGYGFITYWIGWVRQMPGKCLEWMGIIYPGDSETRYSPSFQGQVTISADKSINTAYLQWSSLKASDTAIYYCAGGSGISTPMDVWGQGTTVTVGGGGSGGGGSGGGGSGGGGSDIQLTQSPDSLAVSLGERATINCKSSQSVLYSSINKNYLAWYQQKPGQPPKLLIYWASTRESGVPDRFSGSGSGTDFTLTISSLQAEDVAVYYCQQYYSTPYTFGCGTKVEIK | – | – | – | – | – | 0.0178 | 0.0435 | 0.453 |
| 461 (bispecific antibody, also called LC of P043.A.00018.C02 with a C-terminal fusion of a scFv of anti-S1 antibody; HC of P043.A.00018.C02 as IgG1-LALA-LS) heavy chain: QSVEESGGRLVTPGTPLTLTCTVSGFSLSSYAMSWVRQAPGKGLEWIGIINSGRSTYYASWAKGRFTISKTSTTVDLKITSPTTEDTATYFCARDATSIGYYRYYGMDPWGPGTLVTVSSASTKGPSVFPLAPSSKSTSGGTAALGCLVKDYFPEPVTVSWNSGALTSGVHTFPAVLQSSGLYSLSSVVTVPSSSLGTQTYICNVNHKPSNTKVDKRVEPKSCDKTHTCPPCPAPEAAGGPSVFLFPPKPKDTLMISRTPEVTCVVVDVSHEDPEVKFNWYVDGVEVHNAKTKPREEQYNSTYRVVSVLTVLHQDWLNGKEYKCKVSNKALPAPIEKTISKAKGQPREPQVYTLPPSREEMTKNQVSLTCLVKGFYPSDIAVEWESNGQPENNYKTTPPVLDSDGSFFLYSKLTVDKSRWQQGNVFSCSVLHEALHSHYTQKSLSLSPGK light chain fused to scFv: AIQMTQSPSSLAASVGDTVTITCKASEDIGYGLNWYQQKLGIAPKLLIYGANTLESGVPSRFSGSGSETDYTLTISSVQAEDAGIYYCQQGYSTPLTFGAGTKVEIKRTVAAPSVFIFPPSDEQLKSGTASVVCLLNNFYPREAKVQWKVDNALQSGNSQESVTEQDSKDSTYSLSSTLTLSKADYEKHKVYACEVTHQGLSSPVTKSFNRGECDVPGGSGGGGSGGGGSGGGGSQMQLVQSGTEVKKPGESLKISCKGSGYGFITYWIGWVRQMPGKCLEWMGIIYPGDSETRYSPSFQGQVTISADKSINTAYLQWSSLKASDTAIYYCAGGSGISTPMDVWGQGTTVTVGGGGSGGGGSGGGGSGGGGSDIQLTQSPDSLAVSLGERATINCKSSQSVLYSSINKNYLAWYQQKPGQPPKLLIYWASTRESGVPDRFSGSGSGTDFTLTISSLQAEDVAVYYCQQYYSTPYTFGCGTKVEIK | – | – | – | – | – | 0.0128 | 0.0525 | 0.913 |
| 462 (bispecific antibody, also called LC of P043.A.00024.C11 with a C-terminal fusion of a scFv of anti-S1 antibody; HC of P043.A.00024.C11 as IgG1-LALA-LS) heavy chain: QSVEESGGRLVTPGTPLTLTCTVSGFSLSSYAMSWVRQAPGKGLEWIGIISSSGTTYYASWAKGPFTISKTSTTVDLKITSPTTEDTATYFCARGGAGYGYAHYYGMDPWGPGTLVTVSSASTKGPSVFPLAPSSKSTSGGTAALGCLVKDYFPEPVTVSWNSGALTSGVHTFPAVLQSSGLYSLSSVVTVPSSSLGTQTYICNVNHKPSNTKVDKRVEPKSCDKTHTCPPCPAPEAAGGPSVFLFPPKPKDTLMISRTPEVTCVVVDVSHEDPEVKFNWYVDGVEVHNAKTKPREEQYNSTYRVVSVLTVLHQDWLNGKEYKCKVSNKALPAPIEKTISKAKGQPREPQVYTLPPSREEMTKNQVSLTCLVKGFYPSDIAVEWESNGQPENNYKTTPPVLDSDGSFFLYSKLTVDKSRWQQGNVFSCSVLHEALHSHYTQKSLSLSPGK light chain fused to scFv: AIQMTQSPSSLAASVGDTVTITCKASEDIGYGLNWYQQKLGIAPKLLIYGANTLESGVPSRFSGSGSETDYTLTISSVQAEDAGIYYCQQGYSTPLTFGAGTKVEIKRTVAAPSVFIFPPSDEQLKSGTASVVCLLNNFYPREAKVQWKVDNALQSGNSQESVTEQDSKDSTYSLSSTLTLSKADYEKHKVYACEVTHQGLSSPVTKSFNRGECDVPGGSGGGGSGGGGSGGGGSQMQLVQSGTEVKKPGESLKISCKGSGYGFITYWIGWVRQMPGKCLEWMGIIYPGDSETRYSPSFQGQVTISADKSINTAYLQWSSLKASDTAIYYCAGGSGISTPMDVWGQGTTVTVGGGGSGGGGSGGGGSGGGGSDIQLTQSPDSLAVSLGERATINCKSSQSVLYSSINKNYLAWYQQKPGQPPKLLIYWASTRESGVPDRFSGSGSGTDFTLTISSLQAEDVAVYYCQQYYSTPYTFGCGTKVEIK | – | – | – | – | – | 0.0119 | 0.0464 | 0.948 |
